Patent US20240368668A1, “SUBSTRATES AND BIOMARKERS OF ADAMTS7” (The Broad Institute, Inc., priority 2021, published 2024)
Square brackets hold non-standard residues; d marks the D form. Ends that are not written are not given here.

Biological target: T1, mouse ADAMTS7 (Mus musculus, UniProt Q68SA9, E373Q)
T1 construct: Full-length mouse Adamts7 1-1857 (Uniprot Q68SA9, WT or E373Q catalytic mutant); expressed in transfected cells; host or cells: Human Coronary Artery Smooth Muscle Cells (HCA-SMC, Lonza), adenovirus 50 MOI
T1 sequence (Q68SA9 221-1657 E373Q): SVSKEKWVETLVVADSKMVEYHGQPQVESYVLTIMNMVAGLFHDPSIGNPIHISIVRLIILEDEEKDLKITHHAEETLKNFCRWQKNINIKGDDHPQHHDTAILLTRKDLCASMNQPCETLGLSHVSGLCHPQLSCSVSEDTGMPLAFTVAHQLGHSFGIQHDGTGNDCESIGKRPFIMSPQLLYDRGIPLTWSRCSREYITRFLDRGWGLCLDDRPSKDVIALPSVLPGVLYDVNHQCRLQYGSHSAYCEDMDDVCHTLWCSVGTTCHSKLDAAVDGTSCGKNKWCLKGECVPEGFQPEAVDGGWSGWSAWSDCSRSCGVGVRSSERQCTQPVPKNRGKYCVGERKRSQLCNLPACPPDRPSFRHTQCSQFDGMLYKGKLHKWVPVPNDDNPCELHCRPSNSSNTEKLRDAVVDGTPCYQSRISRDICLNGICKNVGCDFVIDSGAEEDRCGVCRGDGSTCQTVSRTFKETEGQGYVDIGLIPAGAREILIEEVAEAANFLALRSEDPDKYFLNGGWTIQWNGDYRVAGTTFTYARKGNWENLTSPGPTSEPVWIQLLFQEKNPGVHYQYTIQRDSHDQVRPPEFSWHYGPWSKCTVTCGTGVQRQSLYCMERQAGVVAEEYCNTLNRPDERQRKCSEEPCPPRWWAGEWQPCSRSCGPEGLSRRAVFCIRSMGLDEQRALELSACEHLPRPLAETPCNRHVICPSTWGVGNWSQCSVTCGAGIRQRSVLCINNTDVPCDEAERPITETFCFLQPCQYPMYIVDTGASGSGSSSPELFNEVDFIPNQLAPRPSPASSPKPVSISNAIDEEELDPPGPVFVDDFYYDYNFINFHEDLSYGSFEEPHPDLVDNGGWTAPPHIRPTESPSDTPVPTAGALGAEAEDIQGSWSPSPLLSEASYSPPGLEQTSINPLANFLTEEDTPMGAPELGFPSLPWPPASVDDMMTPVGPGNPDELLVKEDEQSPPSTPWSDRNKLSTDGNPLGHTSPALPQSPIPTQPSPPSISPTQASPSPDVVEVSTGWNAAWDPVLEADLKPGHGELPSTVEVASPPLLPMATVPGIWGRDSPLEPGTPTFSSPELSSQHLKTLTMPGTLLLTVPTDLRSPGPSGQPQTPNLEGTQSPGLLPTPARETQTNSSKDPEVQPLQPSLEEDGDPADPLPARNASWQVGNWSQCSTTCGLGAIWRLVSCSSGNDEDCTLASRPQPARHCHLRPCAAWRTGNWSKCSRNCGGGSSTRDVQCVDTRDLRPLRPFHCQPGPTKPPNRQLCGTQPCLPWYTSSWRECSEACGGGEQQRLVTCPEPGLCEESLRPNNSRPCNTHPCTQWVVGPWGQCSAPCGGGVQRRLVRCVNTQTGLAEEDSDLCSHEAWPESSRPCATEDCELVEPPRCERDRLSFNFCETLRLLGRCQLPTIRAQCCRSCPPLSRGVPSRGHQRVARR
Assay: TMT10 TAILS N-terminomics, HUVEC experiment (process replicates, trypsin/AspN digest)
Type: cell-based, human
Conditions: HUVEC TAILS HC; log fold change of N-terminal peptide, Ad-mADAMTS7 EQ over Luc
Summary of the method: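 Full-length mouse ADAMTS7 (WT or E373Q mutant, C-terminal 3xFLAG) or luciferase was transduced via adenovirus, 50 MOI, into HCA-SMC (SMC1, SMC2) or HUVEC. SMC1: pooled media, technical triplicates 400 ug; SMC2: process triplicates 300 ug; HUVEC: process triplicates 200 ug, bFGF2 10 ng/ml.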

Substance	logFC.mEQ.over.Luc
FN1_1780 (LQGLRPGSEYTVSVVALH; listed as Homo sapiens)	−0.47
FSTL1_290 (LQKHQETA; listed as Homo sapiens)	−0.24
EFEMP1_125_ (VAGPEMQTGR; listed as Homo sapiens)	−0.11
ERAP2_718 (ISENLKR; listed as Homo sapiens)	0.64
LOX_125 (FQAGYSTSR; listed as Homo sapiens)	0.24
FN1_1144 (TPGVEYVYTIQVLR; listed as Homo sapiens)	−0.19
FN1_1805 (LIGTQSTAIPAPT; listed as Homo sapiens)	0.05
FN1_607 (SSSGPVEVFIT; listed as Homo sapiens)	−0.40
FN1_34 ([code q]QMVQPQSPVAVSQSKPGCY; not fully specified (residue 3); listed as Homo sapiens)	−0.06
EWSR1_87 (YSQPVQGYGTGAY; listed as Homo sapiens)	−0.05
FN1_35 ([code q]MVQPQSPVAVSQSKPGCY; not fully specified (residue 2); listed as Homo sapiens)	−0.27
FN1_293 (VYQPQPHPQPPPYGHCVT; listed as Homo sapiens)	−0.29
ECM1_108 (QEAVPLQK; listed as Homo sapiens)	0.09
FN1_2113 (FVTHPGY; listed as Homo sapiens)	−0.62
